Values quoted from earlier work, collected in paper PMC9241160.

Target: Fibrinogen beta chain N-terminal fibrinopeptide (Homo sapiens) (UniProt P02675)

In the case of SdrG N2-N3 (from UniProt Q9KI13), the Kd is listed as 400 nM.
